Laboratory results from the supplement of paper PMC10724198.
± gives the standard deviation of the averaged measurements.

Test system: Saccharomyces cerevisiae
Assay: protein stability index of tFT-peptide fusion (C-terminal peptide) (PSI (0-1 scale)); higher = more stable (slower turnover)
Conditions: genetic background: wild type; temperature: 30 C
Protocol: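 Multiplexed protein stability (MPS) profiling in S. cerevisiae. Random 12-aa peptides (tFT-X12 library) are fused to the C-terminus of a sfGFP-mCherry tandem fluorescent timer, after mCherry and a GGGS linker. Cells are FACS-sorted into 8 mCherry/sfGFP bins and deep-sequenced. The protein stability index (PSI) is the read-weighted bin average, scaled from 0 (unstable) to 1 (stable). Only peptides with >10 reads are reported; cells were grown at 30 °C in SC-His with glucose.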
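Note: PSI is a weighted mean of sequencing reads over stability bins, variants kept only with over 10 reads, mCherry proximal and sfGFP distal, peptide attached via GGGS linker.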

| Sequence | protein stability index |
| --- | --- |
| FAWYSFYSPPPR | 0.667 ± 0.0048 |
| FCGFLVLGSFPV | 0.664 ± 0.072 |
| FCLIHCIVPFPV | 0.507 ± 0.093 |
| FCNPHVGGIRRA | 0.684 ± 0.05 |
| FCPVGVFCGIFG | 0.644 ± 0.029 |
| FCRLSHYLSASP | 0.687 ± 0.17 |
| FCSVTLPSRSCV | 0.727 ± 0.098 |
| FDCMVRVRTTVV | 0.544 ± 0.027 |
| FDLVFRPVLGLL | 0.6246 ± 0.0052 |
| FECDYLLCGAGL | 0.744 ± 0.029 |
| FELTSATWRGCF | 0.685 ± 0.094 |
| FEVRLRCLGYSG | 0.718 ± 0.015 |
| FFDPPPSLSALI | 0.7724 ± 0.0037 |
| FFEVFDNYRSLV | 0.684 ± 0.051 |
| FFFFPFLPFSWF | 0.507 ± 0.0084 |
| FFITFGFSSGSR | 0.675 ± 0.068 |
| FFPSPHVPPPPP | 0.617 ± 0.018 |
| FFPSPPPVLSPP | 0.747 ± 0.021 |
| FFSGYVVSTRHM | 0.702 ± 0.089 |
| FFSMVFVFGFRA | 0.5 ± 0.015 |
| FFSRFCYGFGRM | 0.723 ± 0.066 |
| FFSSALILSLRL | 0.533 ± 0.023 |
| FFVGAGGTEGLG | 0.705 ± 0.0088 |
| FFVVGEEFCVSV | 0.649 ± 0.054 |
| FGASSGSARVCG | 0.682 ± 0.083 |
| FGEAFYVGCVHV | 0.698 ± 0.037 |

| Sequence | protein stability index |
| --- | --- |
| FGFLDRVLLFRV | 0.547 ± 0.013 |
| FGFSSGRVRQRV | 0.754 ± 0.011 |
| FGGSGAYRRVGE | 0.7 ± 0.072 |
| FGGVGRGGLLWC | 0.7749 ± 0.0041 |
| FGIGWNDRLVEC | 0.669 ± 0.057 |
| FGSCVIFAAHWF | 0.6467 ± 0.0025 |
| FGSVGSIRTPDG | 0.707 ± 0.0086 |
| FGTKSLPSLLAM | 0.583 ± 0.034 |
| FGVRPVSVPLCG | 0.592 ± 0.047 |
| FGVSFFSGVNGV | 0.681 ± 0.011 |
| FGWKTGGRGTVM | 0.742 ± 0.04 |
| FHFFSFLSSVGF | 0.6434 ± 0.0062 |
| FHFPHPFLPFPS | 0.666 ± 0.12 |
| FHPRLGVRLGIT | 0.632 ± 0.046 |
| FHPRPPLLPSLP | 0.6435 ± 0.003 |
| FHRESAEPSLWS | 0.697 ± 0.11 |
| FHRHILCSDPRL | 0.709 ± 0.022 |
| FHRSNFLPFFHL | 0.593 ± 0.092 |
| FHYALRLLDFNN | 0.716 ± 0.12 |
| FIFHFLMFPGPL | 0.56 ± 0.013 |
| FIGLGPGVGGVW | 0.704 ± 0.028 |
| FIIIKTKKMTMK | 0.7 ± 0.064 |
| FIKTSDAVIGEK | 0.563 ± 0.017 |
| FISVFYMLFPYR | 0.626 ± 0.013 |
| FIVPLFPVFFSS | 0.621 ± 0.05 |
| FLAWPRSDYPGF | 0.732 ± 0.022 |

| Sequence | protein stability index |
| --- | --- |
| FLCLVASLFRFA | 0.585 ± 0.043 |
| FLCSRYRGYMPT | 0.632 ± 0.086 |
| FLFCWGCCRLFW | 0.581 ± 0.1 |
| FLFGILFTSRAV | 0.5311 ± 0.0015 |
| FLFTLPPPPRCH | 0.709 ± 0.088 |
| FLGLDLVFRFFV | 0.554 ± 0.066 |
| FLGQPLSFSHVL | 0.692 ± 0.035 |
| FLIRSSQSFELE | 0.715 ± 0.035 |
| FLKGTTSQQDYT | 0.7022 ± 0.0056 |
| FLLFASPPPRPL | 0.715 ± 0.017 |
| FLLPPPFLPLPL | 0.691 ± 0.028 |
| FLLSARGVIVFW | 0.544 ± 0.018 |
| FLLSLYSVPFVL | 0.63984 ± 0.00021 |
| FLNRDGFETLFC | 0.686 ± 0.022 |
| FLPPPPRRPFTR | 0.6282 ± 0.0057 |
| FLPRGPLPPSPF | 0.595 ± 0.026 |
| FLRCALRLRFGF | 0.671 ± 0.038 |
| FLRGRTPLTAGD | 0.582 ± 0.022 |
| FLSEPAKRILYL | 0.667 ± 0.018 |
| FLSFFVLGVPGG | 0.707 ± 0.039 |
| FLSHISVPRGKT | 0.773 ± 0.034 |
| FLVREGIGKRGC | 0.641 ± 0.072 |
| FLVRMIYYRRHP | 0.616 ± 0.028 |
| FMSGIVDLQRPL | 0.691 ± 0.034 |
| FMVFCFPFTGVL | 0.562 ± 0.022 |
| FMVVKWSPCAWC | 0.539 ± 0.026 |

| Sequence | protein stability index |
| --- | --- |
| FNFSSGLTGSWL | 0.763 ± 0.024 |
| FPASPQPPPPLP | 0.627 ± 0.024 |
| FPDGLGSVPRSP | 0.68389 ± 0.0004 |
| FPFTLSPTLFHS | 0.714 ± 0.08 |
| FPLFRSLLLFAP | 0.5331 ± 0.00081 |
| FPLLCAAPLLSS | 0.594 ± 0.0012 |
| FPLYKQKSGITY | 0.651 ± 0.0081 |
| FPPARPDFPPST | 0.735 ± 0.025 |
| FPPIHIHSPCYP | 0.765 ± 0.021 |
| FPPPPLYFPFPL | 0.693 ± 0.017 |
| FPQSDFFLLILS | 0.549 ± 0.013 |
| FPRPACRSTHIL | 0.671 ± 0.065 |
| FPRPPSVLACRP | 0.645 ± 0.088 |
| FPRVTGTKPPPA | 0.7201 ± 0.0023 |
| FPSPPLPSSSTS | 0.708 ± 0.051 |
| FQAERTGVTRAR | 0.666 ± 0.0078 |
| FQAVSPRFLVLP | 0.64 ± 0.046 |
| FQGSDCLYFGLL | 0.741 ± 0.043 |
| FQHFGAPPTWHE | 0.742 ± 0.093 |
| FQVCAPLPISRS | 0.717 ± 0.029 |
| FRAPVLCPSYYS | 0.7064 ± 0.0049 |
| FRDPPSILTSDT | 0.621 ± 0.017 |
| FRGAGAEGSGWG | 0.634 ± 0.0066 |
| FRLILGCPFACL | 0.576 ± 0.034 |
| FRLKRFSGTGYG | 0.698 ± 0.035 |
| FRLPAIRRGHDS | 0.69 ± 0.069 |

| Sequence | protein stability index |
| --- | --- |
| FRRILGTIKLGR | 0.69 ± 0.023 |
| FRTVRSMVGRRP | 0.721 ± 0.077 |
| FRWGGPSGEVRE | 0.643 ± 0.1 |
| FSACSGSHVEVW | 0.695 ± 0.037 |
| FSFFVESFPASF | 0.668 ± 0.036 |
| FSFIPIRRYPVM | 0.733 ± 0.15 |
| FSGFRFFLLWPW | 0.678 ± 0.085 |
| FSHLRASFADAA | 0.687 ± 0.045 |
| FSIFFFSFFSCF | 0.563 ± 0.039 |
| FSILYLLPPGPL | 0.663 ± 0.092 |
| FSKTLCGCQITC | 0.658 ± 0.037 |
| FSLCFSSFSLFP | 0.676 ± 0.016 |
| FSLPFLFCRPLS | 0.6279 ± 0.0042 |
| FSLPSRAPLPRF | 0.735 ± 0.13 |
| FSLSLACPPPHS | 0.679 ± 0.19 |
| FSLSRWFDEIAL | 0.6438 ± 0.00075 |
| FSLWPVRFVVDR | 0.679 ± 0.041 |
| FSNLVSAHFGLL | 0.666 ± 0.042 |
| FSPTPSRLSCDR | 0.728 ± 0.027 |
| FSPVSSFTLTLS | 0.701 ± 0.11 |
| FSRFWVSGGVVC | 0.599 ± 0.0082 |
| FSSPSFRSSLLL | 0.679 ± 0.015 |
| FSSTSAPPRSAP | 0.621 ± 0.0078 |
| FTARAGRLQSVF | 0.627 ± 0.0097 |
| FTCSAIIHVCGL | 0.571 ± 0.035 |
| FTISALSSTPRP | 0.669 ± 0.042 |

| Sequence | protein stability index |
| --- | --- |
| FTLYLASVHFTR | 0.56 ± 0.044 |
| FTVRSPSCISAE | 0.631 ± 0.017 |
| FVALWVGCCWLG | 0.542 ± 0.011 |
| FVAPPLCMPLSR | 0.704 ± 0.04 |
| FVCRRDIMSGIF | 0.6565 ± 0.0052 |
| FVDWGLFAFGCL | 0.796 ± 0.062 |
| FVFGVCGGGGIG | 0.671 ± 0.11 |
| FVGAYGRLCCMS | 0.69 ± 0.031 |
| FVGGNEGSYWAS | 0.751 ± 0.035 |
| FVGRWSSRSRGH | 0.768 ± 0.022 |
| FVILTPFYLTFH | 0.51 ± 0.033 |
| FVIWGCGVRSWC | 0.618 ± 0.033 |
| FVKRFSNGGVKT | 0.775 ± 0.027 |
| FVLATGVLLQQG | 0.623 ± 0.024 |
| FVLWFTSSGCSN | 0.7598 ± 0.0039 |
| FVPMDFILKFSR | 0.699 ± 0.033 |
| FVPPPVVPPFPL | 0.716 ± 0.017 |
| FVQEQGAKNNRH | 0.746 ± 0.015 |
| FVRAVLRLSSVF | 0.645 ± 0.052 |
| FVRCLFSSGCFF | 0.728 ± 0.013 |
| FVRGGWAVMLGG | 0.58 ± 0.049 |
| FVSSSVFFVFSF | 0.627 ± 0.058 |
| FVSWNLPLAFAF | 0.499 ± 0.017 |
| FVVVVVGGGWGG | 0.516 ± 0.0068 |
| FVWRVGGVRRGV | 0.758 ± 0.09 |
